Measurements published in PMC11079029, “Intramolecular autoinhibition regulates the selectivity of PRPF40A tandem WW domains for proline-rich motifs” (Nature Communications, 2024).

Columns and labels:
Assay in all cases: ITC; GB1-peptide or GB1-SF1 construct in the cell, PRPF40A WW12 in the syringe (as shown in Supplementary Figures 7 and 16A); 25 °C, 20 mM sodium phosphate pH 6.5, 100 mM NaCl; one-site binding model; at least duplicates; affinities apparent
Conditions in all cases: both partners purified
[1] = target: T1, GB1-SF1 Pro A (residues 410-468) (UniProt Q15637 410-468)
T1 construct: splicing factor 1 (SF1), residues 410-468 of the proline-rich C-terminal region; His6-GB1-TEV site cassette of the pET24 vector, not cleaved; source: E. coli BL21(DE3), purified (Ni-NTA, SEC); not shown: GB1, N-terminal, kept
T1 sequence (looked up): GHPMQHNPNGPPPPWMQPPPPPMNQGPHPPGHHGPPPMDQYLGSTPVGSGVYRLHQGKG

[2] = target: T2, GB1-SF1 Pro B (residues 468-539) (UniProt Q15637 468-539)
T2 construct: splicing factor 1 (SF1), residues 468-539 of the proline-rich C-terminal region; His6-GB1-TEV site cassette of the pET24 vector, not cleaved; source: E. coli BL21(DE3), purified (Ni-NTA, SEC); not shown: GB1, N-terminal, kept
T2 sequence (looked up): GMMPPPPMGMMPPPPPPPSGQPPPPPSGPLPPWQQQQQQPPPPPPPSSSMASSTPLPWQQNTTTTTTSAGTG

[3] = target: T3, GB1-SF1 Pro D (residues 594-639) (UniProt Q15637 594-639)
T3 construct: splicing factor 1 (SF1), residues 594-639 of the proline-rich C-terminal region; His6-GB1-TEV site cassette of the pET24 vector, not cleaved; source: E. coli BL21(DE3), purified (Ni-NTA, SEC); not shown: GB1, N-terminal, kept
T3 chain (looked up): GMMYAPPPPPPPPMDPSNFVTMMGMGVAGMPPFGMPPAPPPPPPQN

[4] = target: T4, GB1-polyproline peptide P29
T4 chain: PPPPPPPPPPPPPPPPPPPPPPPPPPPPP

[5] = target: T5, GB1-SF1 16-mer peptide 565-580
T5 chain: TMVPLPPGVQPPLPPG

[6] = target: T6, GB1-polyproline peptide P10
T6 chain: PPPPPPPPPP

[7] = target: T7, GB1-polyproline peptide P13
T7 chain: PPPPPPPPPPPPP

[8] = target: T8, GB1-polyproline peptide P16
T8 chain: PPPPPPPPPPPPPPPP

[9] = target: T9, GB1-polyproline peptide P19
T9 chain: PPPPPPPPPPPPPPPPPPP

[10] = target: T10, GB1-polyproline peptide P22
T10 chain: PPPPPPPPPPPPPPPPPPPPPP

[11] = target: T11, GB1-polyproline peptide P25
T11 chain: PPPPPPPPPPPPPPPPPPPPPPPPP

B1: PRPF40A WW12 (tandem WW domains, residues 141-236) (domain or fragment, human, UniProt O75400 141-236, looked up)
chain: GAKSMWTEHKSPDGRTYYYNTETKQSTWEKPDDLKTPAEQLLSKCPWKEYKSDSGKPYYYNSQTKESRWAKPKELEDLEGYQNTIVAGSLITKSNL
notes: A few vector residues probably remain at the N-terminus after TEV cleavage (pETM11, NcoI site); 15N-labelled in the NMR experiments; also called PRPF40A WW tandem; WW12 wt; source: E. coli BL21(DE3), purified (Ni-NTA, TEV digestion, reverse Ni-NTA, SEC); not shown: His6, N-terminal, cleaved
stoichiometry N [1]: 0.99 ± 0.17 sites | stoichiometry N [2]: 1.15 ± 0.15 sites | stoichiometry N [3]: 0.87 ± 0.02 sites | stoichiometry N [4]: 2.47 ± 0.09 sites | stoichiometry N [5]: 1.06 ± 0.11 sites | stoichiometry N [6]: 0.89 ± 0.11 sites | stoichiometry N [7]: 0.78 ± 0.07 sites | stoichiometry N [8]: 0.88 ± 0.08 sites | stoichiometry N [9]: 1.1 ± 0.04 sites | stoichiometry N [10]: 1.39 ± 0.03 sites | stoichiometry N [11]: 2.3 ± 0.09 sites
